Data as given in paper PMC12332008, “Ribosome biogenesis in plants requires the nuclear envelope and mitochondria localized OPENER complex” (Nature Communications, 2025).
Read-outs that look alike come from different tables or passages of the source.

Experiments:
[1] = target: 6xHis-OAP1 (Arabidopsis thaliana); assay: co-purification of co-expressed proteins (Ni-NTA); 6xHis-OAP1, OAP2 and OPNR expressed together in E. coli BL21(DE3), purified on Ni-NTA resin by the His tag of OAP1; molar ratio from the gel
[2] = target: T1, OAP1 (recombinant, 6xHis-tag removed) (Arabidopsis thaliana, UniProt F4K9I8 1-303); assay: SEC; OPNR-OAP1-OAP2 complex after removal of the 6xHis-tag; Superdex200 16/600
T1 construct: OPENER ASSOCIATED PROTEIN 1 (OAP1), Arabidopsis thaliana, AT5G07950; printed molecular weight 34 kDa; not shown: 6xHis, N-terminal, cleaved
T1 sequence (looked up): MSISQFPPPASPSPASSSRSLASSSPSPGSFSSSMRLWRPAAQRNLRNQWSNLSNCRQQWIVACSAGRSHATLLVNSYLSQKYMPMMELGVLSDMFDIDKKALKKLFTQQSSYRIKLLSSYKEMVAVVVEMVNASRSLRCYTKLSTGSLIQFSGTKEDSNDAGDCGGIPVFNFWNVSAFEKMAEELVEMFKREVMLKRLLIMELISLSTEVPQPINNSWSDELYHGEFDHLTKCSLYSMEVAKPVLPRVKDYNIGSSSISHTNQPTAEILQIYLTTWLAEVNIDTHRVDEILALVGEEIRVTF

OAP2 (recombinant) (natural protein) gave a stoichiometry N [1] of 1 and a stoichiometry N [2] of 1.

B1: OPNR (recombinant) (natural protein, Arabidopsis thaliana, UniProt Q6NPG7 1-195, looked up)
chain: MEAVIRKWQQKFRKGKEEMEKWEALQVRWVSLFRNASSIIQRLQEMQNHGSYGALRCLKGIEDAVVQQQMGQLESLLRSMKNVMEEFWGCVLTFEKLHRDGLQLREIESSKRRVEERIGVKPCITDCLEGLSILYDMHQSEYHLKSSILSVLSCLILKPSPGDLNALQYLVVDQPNIPKDEVQHIFDVIFAEEIK
notes: OPENER (OPNR), Arabidopsis thaliana, AT5G43822; printed molecular weight 23 kDa; also called OPENER; source: E. coli BL21(DE3), co-expressed with 6xHis-OAP1 and OAP2 from pACYCDuet-1, co-purified (Ni-NTA, Superdex200)
For B1, the stoichiometry N [1] was 1 and the “stoichiometry N” value ([2]; both partners purified) was 1.
